Test results taken from PMC2688778 (Structure (London, England : 1993), 2009).
Residue numbers refer to the chain shown, from its start.

Columns and labels:
Test in all cases: fluorescence anisotropy
[1] = molecular target: T1, RecE564 Y778A (Escherichia coli K12, UniProt P15032 564-866, Y778A)
T1 sequence: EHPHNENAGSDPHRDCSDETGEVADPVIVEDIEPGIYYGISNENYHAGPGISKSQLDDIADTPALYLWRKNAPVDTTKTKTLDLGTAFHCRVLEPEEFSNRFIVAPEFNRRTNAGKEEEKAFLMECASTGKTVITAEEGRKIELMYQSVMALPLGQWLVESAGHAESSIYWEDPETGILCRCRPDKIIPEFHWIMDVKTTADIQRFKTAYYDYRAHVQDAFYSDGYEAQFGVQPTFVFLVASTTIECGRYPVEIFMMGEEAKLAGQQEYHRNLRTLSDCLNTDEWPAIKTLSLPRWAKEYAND

[2] = molecular target: T2, RecE564 K643A (Escherichia coli K12, UniProt P15032 564-866, K643A)
T2 sequence: T1 sequence with K80A, A215Y

[3] = molecular target: T3, RecE564 E729A (Escherichia coli K12, UniProt P15032 564-866, E729A)
T3 sequence: T1 sequence with E166A, A215Y

[4] = molecular target: T4, RecE564 WT (Escherichia coli K12, UniProt P15032 564-866)
T4 sequence: T1 sequence with A215Y

[5] = molecular target: T5, RecE564 Y608A (Escherichia coli K12, UniProt P15032 564-866, Y608A)
T5 sequence: T1 sequence with Y45A, A215Y

[6] = molecular target: T6, RecE564 S617A (Escherichia coli K12, UniProt P15032 564-866, S617A)
T6 sequence: T1 sequence with S54A, A215Y

B1: F25 (dsDNA)
DNA 1: TAGAGCTTAATTGCTGAATCTGGTG
DNA 2: CACCAGATTCAGCAATTAAGCTCTA
Kd [1]: 130 ± 20 nM
Kd [2]: 210 ± 6 nM
Kd [3]: 57 ± 3 nM
Kd [4]: 70 ± 2 nM
Kd [5]: 160 ± 10 nM
Kd [6]: 150 ± 20 nM
